From patent publication US10501502B2, “Allophycocyanin alpha-subunit evolved labeling proteins (smURFPs)” (The Regents of the University of California, priority 2016, dated 2019) come the findings set out here.

The subject of one data set is HEK293A cells. In words: Fluorescence imaging of FPs in HEK293A cells with chromophore addition or HO-1 expression. In kind it is cell-based. The following applies: smURFP/TDsmURFP in HEK293A cells. The text has this:
smURFP codons were optimized for human cell expression, and the gene was created by GenScript. smURFP, TDsmURFP (created from mammalian-optimized smURFP), IFP1.4 (mammalian-optimized form^35), IFP2.0 (mammalian-optimized form^46), and iRFP713 (mammalian-optimized form^36) were PCR amplified using Phusion High-Fidelity DNA Polymerase (NEB) with primers containing 5′ HindIII and 3′ XhoI restriction enzyme sites. HindIII-HF and XhoI (NEB)-digested PCR fragments were gel purified (Zymoclean Gel DNA Recovery Kit) and were ligated (T4 DNA Ligase, Life Technologies) into a similarly digested pCDNA3-IRES-eGFP vector (bicistronic to express two FPs in the same cell). For creation of HO-1-expressing mammalian vec-tors, the Synechocystis HO-1 was used, and the codons were not optimized for mammalian expression. Synechocystis HO-1 was directly amplified from the pBAD vector using primers containing 5′ BsiWI and 3′ XbaI restriction enzyme sites. pCDNA3 smURFP, TDsmURFP, IFP1.4, IFP2.0, or iRFP713-IRES-eGFP vectors were digested with BsiWI and XbaI (NEB), dephosphorylated (SAP, Roche), gel purified (Zymoclean Gel DNA Recovery Kit), and ligated (T4 DNA Ligase, Life Technologies) with similarly digested, purified HO-1 PCR fragment. For creation of smURFP fusions, smURFP was PCR amplified using Phusion High-Fidelity DNA Polymerase (NEB) with primers containing 5′ AgeI and 3′ NotI restriction enzyme sites for N-terminal fusions or with primers containing 5′ AgeI and 3′ BspEI restriction enzyme sites for C-terminal fusions. mGeos2-VEL-ManII-N-10 (Addgene 57551) and Dronpa-PDHA1-N-10 (Addgene 57292) vectors were digested with AgeI and NotI (NEB) and mCherry-αTubulin-C-18 (Addgene 55148) and tdTomato-LaminB1-10 (Addgene 58107) were digested with AgeI and BspEI, dephosphorylated (SAP, Roche), gel purified (Zymoclean Gel DNA Recovery Kit), and ligated (T4 DNA Ligase, Life Technologies) with similarly digested, purified smURFP PCR fragment. HEK293A (Invitrogen, Life Technologies), HT1080 (ATCC), and PC3 (ATCC) cells were grown in Dulbecco's Modified Eagle's medium (DMEM, Corning), supplemented with 10% FBS (Atlanta Biologicals)+1×penicillin—streptomycin (Fisher Scientific), which is referred to as growth media, on poly-D-lysine-coated glass-bottom culture dishes (MatTek, No. P35G-0-14-C). The HEK cell line is listed in the ICLAC and NCBI biosample databases and is commonly misidentified as the HeLa cell line. For expression of exogenous fluorescent proteins, there is no problem if there is a contaminating cell line because no endogenous biology or therapeutic results are being determined. HEK293A cells were purchased from Invitrogen (Life Technologies), and all experiments are derived from the same expanded frozen stock without cell line authentication or mycoplasma detection. Cells were transfected using 2 μg of circular DNA+5 μl Lipofectamine 2000 (Life Technologies) in 2 ml Opti-MEM (Life Technologies) for 4-5 h, transfection media was discarded, and prewarmed growth media was added. Chromophores (5 mM in DMSO) were added at indicated concentrations to growth media, warmed for 10-15 min at 37° C., and added to cells. For multiple timepoints, incubations were staggered to maintain equivalent incubation. Prior to imaging, cells were washed 1×2 ml growth media, 2×2 ml imaging solution, and imaged in 2 ml imaging solution. Fluorescence imaging was performed on a Zeiss Axiovert 200M inverted microscope controlled by SlideBook software. FPs were imaged with the following settings: eGFP, EX/EM=495(10)/535(25) nm, tdTomato EX/EM=540(25)/595(50) nm; mCherry and mCardinal, EX/EM=580(20)/653(95) nm; smURFP and TDsmURFP, EX/EX=628(40)/680(30) nm; and IFP1.4, IFP2.0, and iRFP713, EX/EM=665(45)/725(50) nm. […]

For a further data set, the system named is Escherichia coli. In words: Fluorescence of FPs expressed in Escherichia coli. The data set is classed as cell-based. As to the method: TeAPCα gene (codons optimized for Escherichia coli) was made by GenScript. Mutations were placed by random mutagenesis using GeneMorphII Random Mutagenesis Kit (Agilent Technologies). Screens for mutants that fluoresce with PCB or BV were performed by subcloning into a pBAD vector (Life Technologies) that expressed cyanobacteria Synechocystis HO-1 and Synechocystis PcyA genes for PCB production and Synechocystis HO-1 only for BV production, as previously described^34. Libraries were expressed in TOP 10 Electrocompetent Escherichia coli cells (Life Technologies) with addition of 0.2% arabinose to LB agar plates (FPs were constitutively expressed in Escherichia coli). Fluorescence was imaged on plates using a BioSpectrum AC Imaging System (UVP) with EX/EM=628(40)/690(50) nm for FPs+PCB, EX/EM=685(40)/710LP nm for rounds 4 and 5 FPs+BV, and EX/EM=650(13)/690(50) nm for Cy5-like FPs+BV (rounds 6-12). At round 6, 5-10 of the brightest colonies on each plate were combined in LB+0.2% arabinose, grown ˜18 h, mixture of plasmid DNA was purified, and TOP10 cells were transformed and plated on LB agar plates+0.2% arabinose. Fluorescence was screened on plates (as described above), 10-20 of the brightest colonies were screened in liquid culture fluorescence (FIG. 7a-e), plasmid DNA was purified, and DNA was sequenced. The plasmid DNA of 2-3 of the brightest FPs was chosen for mutagenesis for the subsequent round. When choosing DNA for subsequent mutagenesis rounds, genes with increased and/or novel silent DNA mutations were chosen over other DNA that had the same DNA and/or protein sequence of the previous round. Site-specific mutagenesis was performed using QuikChange Lightning Mutagenesis Kit (Agilent Technologies) to create smURFP (C4S mutation) and smURFP C52S.

Data set [1] is described as follows: FP purification and fluorescence characterization in vitro (spectra, extinction coefficient, quantum yield). The data set is classed as physicochemical. The following applies: for Molecular Brightnes Relative to smURFP / Emission Maximum / Excitation Maximum / Extinction Coefficient / Quantum Yield: Table 4; for Emission Maximum / Excitation Maximum / Extinction Coefficient / Quantum Yield: evolved APCα FPs. As to the method:
FP genes were expressed on a pBAD vector (Life Technologies) with a polyhistidine tag on the C terminus, cells were lysed with B-PER (Thermo Scientific), and purified using Ni-NTA (Qiagen) puri-fication. PCB (HO-1+PcyA) and BV (HO-1) incorporation in Escherichia coli was performed simultaneously during constitu-tively active FP expression. Extinction coefficient was determined by PCB or BV absorbance as described35,36 (Table 3, smURFP+BV and TDsmURFP+BV, and Table 2) or calculated for the apoproteins by determining the protein concentration by the BCA protein assay (Pierce), and a specific chromo-phore concentration was added (specified in the Purification of FP lacking chromophore and in vitro chromophore incorporation section) to get 1 and 2 chromophore species (Table 5, not including (Escherichia coli)). When FP chromophore (PCB or BV) was expressed in Escherichia coli, the PCB and BV Q band had absorbance that overlapped with detection of BCA or Bradford assay of 562 nm and 592 nm, respectively. We used the previously published protocols35,36, where there was no change of the BV absorbance at 390 nm when free in solution or attached to the FP. smURFP+BV denaturation with 1 M urea caused no change in the BV absorbance at 390 nm, but the Q band was reduced ˜20-fold. Therefore, the extinction coefficient of BV at 390 nm was used to calculate the concentration of holoprotein (FP+PCB or BV) concentration.
EX and EM spectra were obtained using SPEX Fluorolog fluorometer (Horiba). Absorbance spectra were obtained using UV-VIS Spectrophotometer Cary Eclipse (Varian) or UV-2700 (Shimadzu). Quantum yield was determined relative to Cy5. Incorporation rates of BV on 0.5 μM smURFP was performed by addition of smURFP to PBS alone or with 20% fetal bovine serum (FBS) and mixed by pipetting in a quartz cuvette. Chromophore was added last, mixed by pipetting, and fluorescence was recorded using SPEX Fluorolog fluorometer (Horiba). Photobleaching was characterized on bubbles of purified FP or Cy5 within mineral oil using light from a 150 W xenon arc lamp with 100% light through EX/EM=628(40)/680(30) nm for smURFP, TDsmURFP, and Cy5 or EX/EM=665 (45)/725 (50) nm for IFP 1.4 focused with a 40×, 1.2 numerical aperture C-Apochromat oil-immersion lens on a Zeiss Axiovert 200M inverted microscope. Photobleaching times were normalized to reflect an initial illumination intensity producing 1,000 photons per fluorescent molecule per second as previously described^37.
HO-1 was removed by digesting the pBAD vector (Life Technology) with MscI and PmeI (NEB). smURFP and TDsmURFP were expressed and purified as described above. No chromophore was present on smURFP and TDsmURFP (confirmed by UV, fluorescence imaging, and MS). For predominant fluorescent species+2 chromophores, a ten-fold excess of chromophore was added to smURFP and TDsmURFP. For predominant fluorescent species+1 chromophore, a quarter concentration of chromophore was added to smURFP and TDsmURFP. Chromophore was added in PBS+10% FBS at 37° C. overnight. smURFP+chromophore and TDsmURFP+chromophore were purified using NiNTA (Qiagen) to remove excess or noncovalently attached chromophore.

Substitutions are numbered along the chain they refer to.

Turning to `C=CC1=C(C)/C(=C/C2=NC(=C\c3[nH]c(/C=C4/NC(=O)C(C)=C4C=C)c(C)c3CCC(=O)OC)/C(CCC(=O)OC)=C2C)NC1=O` [BVMe2, biliverdin dimethylester, reference compound], the “chromophore concentration reaching saturation of fluorescence” value in the data set with HEK293A cells is no more than 2.5 µM.

As for “phycocyanobilin [PCB, reference compound]”, the “chromophore concentration required for fluorescence similar to 2.5 μM BVMe2” value in the data set with HEK293A cells is no less than 40 µM.

B1: TeAPCα: Trichodesmium erythraeum allophycocyanin α-subunit, nonfluorescent parent protein, SEQ ID NO: 1 (protein)
chain: MKTGEQRVKIATLLSENEKKIVDKASQDLWRRRPDFIAPGGNAFGQRERALCLRDYGWYLRLITYGLLAGDKDPIESIGLIGVREMYNSLGVPVPGMVESIRCLKEASLSLLDEEDAKETAPYFDYIIQAMS
modifications: smRUFP Variant Polypeptide
In the case of B1, the “fluorescence when expressed in E. coli (qualitative)” value with Escherichia coli is reported as “showed no fluorescence”.

B2: R2-1 + PCB: evolved APCα FP, SEQ ID NO: 3, with PCB (protein)
chain: B1 chain with N42I, Y65F, G66C
modifications: phycocyanobilin chromophore; smRUFP Variant Polypeptide
In the case of B2, in data set [1], the “extinction coefficient (EC)” value is recorded as 65,000 M^−1cm^−1, the “quantum yield (QY)” value amounted to 7.2%, the “Molecular Brightnes Relative to smURFP” value is 14% and the “Emission Maximum” value was 648 nm. Also, in data set [1], the “Excitation Maximum” value came out at 626 nm, the “Extinction Coefficient” value was 65,000 M^−1 cm^−1 and the “Quantum Yield” value turned out to be 7.2%. In addition, in the data set on Escherichia coli, the “fluorescence when expressed in E. coli (qualitative)” value is reported as “lacked fluorescence with BV”. Also, the “fold brighter than R1+PCB” value in the data set on Escherichia coli (expressed in E. coli) was found to be 27 fold.

B3: R5-2: evolved APCα FP, SEQ ID NO: 6, with BV (protein)
chain: MKTCEQRVKIATLLSENEKKIVDKASQDLWRRRPDFIAPGGIAFSQRERALCLRDHRWYLHLITFCLLAGDKDPIESIGLIGIREMYNSLGVPVPGMMESIRCLKEASLSLLDEEDAKETAPYFDYIIKAMS
modifications: biliverdin chromophore; smRUFP Variant Polypeptide
Consider B3, for which, in data set [1], the “extinction coefficient (EC)” value is given as 71,000 M^−1cm^−1; the “quantum yield (QY)” value was 5.3%; the “red-shift of excitation and emission relative to R3-2+PCB” value is reported as roughly 49 nm; the “Molecular Brightnes Relative to smURFP” value is listed as 12%. Moreover, in data set [1], the “Emission Maximum” value came to 696 nm, the “Excitation Maximum” value is given as 671 nm, the “Extinction Coefficient” value was 71,000 M^−1 cm^−1 and the “Quantum Yield” value is listed as 5.3%.

B4: R6-6: evolved APCα FP, SEQ ID NO: 7, with BV (protein)
chain: B3 chain with F36L, H56Y, R57G, D73G
modifications: biliverdin chromophore; smRUFP Variant Polypeptide
Consider B4, for which, in data set [1], the “extinction coefficient (EC)” value is 190,000 M^−1cm^−1, the “quantum yield (QY)” value turned out to be 9.6%, the “Molecular Brightnes Relative to smURFP” value amounted to 56% and the “Emission Maximum” value was 676 nm. In data set [1], the “Excitation Maximum” value was 648 nm, the “Extinction Coefficient” value was 190,000 M^−1 cm^−1 and the “Quantum Yield” value was 9.6%.
